The text below walks through data of paper PMC10397247.

The target in test [1] is T1, O1-bN.
T1 chain: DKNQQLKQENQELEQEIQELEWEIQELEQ
Put plainly: two-hybrid library CCNG1.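 Further: natural log of median RNA to DNA barcode read ratio; higher means stronger binding.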

In test [2] the target is T2, O10-bN.
T2 chain: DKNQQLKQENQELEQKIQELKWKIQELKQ
Put plainly: two-hybrid library CCNG1.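 Further: natural log of median RNA to DNA barcode read ratio; higher means stronger binding.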

For test [3], the target named is T3, O11-bN.
T3 chain: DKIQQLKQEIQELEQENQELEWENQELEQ
The test can be described thus: two-hybrid library CCNG1.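 Further: natural log of median RNA to DNA barcode read ratio; higher means stronger binding.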

In test [4] the target is T4, O12-bN.
T4 chain: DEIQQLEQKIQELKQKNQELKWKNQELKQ
Put plainly: two-hybrid library CCNG1.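 Further: natural log of median RNA to DNA barcode read ratio; higher means stronger binding.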

Test [5] addresses T5, O13-bN.
T5 chain: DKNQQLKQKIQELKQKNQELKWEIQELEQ
Put plainly: two-hybrid library CCNG1.

Test [6] has as its target T6, O14-bN.
T6 chain: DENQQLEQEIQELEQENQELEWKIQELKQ
Put plainly: two-hybrid library CCNG1.

Test [7] addresses T7, O15-bN.
T7 chain: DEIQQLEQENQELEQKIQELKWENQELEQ
Put plainly: two-hybrid library CCNG1.

The target in test [8] is T8, O16-bN.
T8 chain: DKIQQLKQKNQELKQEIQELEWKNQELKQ
The test can be described thus: two-hybrid library CCNG1.

The target in test [9] is T9, O2-bN.
T9 chain: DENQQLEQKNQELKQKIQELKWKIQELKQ
The test can be described thus: two-hybrid library CCNG1.

The target in test [10] is T10, O3-bN.
T10 chain: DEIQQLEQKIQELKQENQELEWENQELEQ
Put plainly: two-hybrid library CCNG1.

The target in test [11] is T11, O4-bN.
T11 chain: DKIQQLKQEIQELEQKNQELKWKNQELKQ
Put plainly: two-hybrid library CCNG1.

Test [12] has as its target T12, O5-bN.
T12 chain: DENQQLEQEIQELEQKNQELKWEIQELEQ
Put plainly: two-hybrid library CCNG1.

The target in test [13] is T13, O6-bN.
T13 chain: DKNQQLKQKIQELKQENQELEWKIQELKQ
The test can be described thus: two-hybrid library CCNG1.

In test [14] the target is T14, O7-bN.
T14 chain: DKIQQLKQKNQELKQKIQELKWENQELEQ
The test can be described thus: two-hybrid library CCNG1.

The target of test [15] is T15, O8-bN.
T15 chain: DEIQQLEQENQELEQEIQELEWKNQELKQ
Put plainly: two-hybrid library CCNG1.

The target in test [16] is T16, O9-bN.
T16 chain: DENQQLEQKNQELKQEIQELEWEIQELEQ
Put plainly: two-hybrid library CCNG1.

Test [17] deals with T17, Core_IINI-es_KKEE.
T17 chain: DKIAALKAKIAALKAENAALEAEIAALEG
The test can be described thus: two-hybrid library CCmax. To be noted: mean of both orientations.

Test [18] deals with T18, Core_NNIN-es_KEKE.
T18 chain: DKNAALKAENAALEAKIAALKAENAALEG
The test can be described thus: two-hybrid library CCmax. The note with it: mean of both orientations.

Test [19] has as its target T19, Core_NINN-es_KKKE.
T19 chain: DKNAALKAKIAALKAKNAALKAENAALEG
Put plainly: two-hybrid library CCmax. The note with it: mean of both orientations.

The target of test [20] is T20, 4H1347-bN.
T20 chain: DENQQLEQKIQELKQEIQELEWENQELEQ
Put plainly: two-hybrid library CCNG1.

The target in test [21] is T21, 4H145-bN.
T21 chain: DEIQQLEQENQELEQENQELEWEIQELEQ
Put plainly: two-hybrid library CCNG1.

In test [22] the target is T22, 4H2619-bN.
T22 chain: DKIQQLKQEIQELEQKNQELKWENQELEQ
Put plainly: two-hybrid library CCNG1.

The target of test [23] is T23, 4H2691-bN.
T23 chain: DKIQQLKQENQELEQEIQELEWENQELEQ
Put plainly: two-hybrid library CCNG1.

The target of test [24] is T24, 4H3070-bN.
T24 chain: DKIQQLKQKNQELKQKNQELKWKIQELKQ
The test can be described thus: two-hybrid library CCNG1.

The target in test [25] is T25, 4H342-bN.
T25 chain: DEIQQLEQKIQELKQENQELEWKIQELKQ
The test can be described thus: two-hybrid library CCNG1.

The target in test [26] is T26, 4H3632-bN.
T26 chain: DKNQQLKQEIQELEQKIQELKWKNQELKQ
The test can be described thus: two-hybrid library CCNG1.

The target in test [27] is T27, 4H496-bN.
T27 chain: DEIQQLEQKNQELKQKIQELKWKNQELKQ
The test can be described thus: two-hybrid library CCNG1.

In the case of DKNQQLKQENQELEQEIQELEWEIQELEQ [O1-bN], the interaction score in test [1] was -0.57; in test [2], -0.61; in test [3], -1.2; in [4], -1.46; in test [5], -1.14; in [6] it was -1.24. The interaction score in test [7] was -1.32; in [8], -1.9; in test [9], 2; in test [10] it was -2.11; in test [11], -0.922; in test [12], -1.54. Further, the interaction score in test [13] was -1.45; in test [14] it was -1.34; in test [15] it was -0.836; in [16], -1.9.
As to DEIAALEAEIAALEAKNAALKAKIAALKG [Core_IINI-es_EEKK], the interaction score in [17] amounted to 2.25.
Consider DENAALEAKNAALKAEIAALEAKNAALKG [Core_NNIN-es_EKEK], for which the interaction score in [18] was found to be 1.67.
In turn, DENAALEAEIAALEAENAALEAKNAALKG [Core_NINN-es_EEEK] gave an interaction score in [19] of 2.16.
Regarding DENQQLEQKIQELKQEIQELEWENQELEQ [4H1347-bN], the interaction score was -0.341 in test [20]; -0.341 in [21]; -1.17 in test [22]; -0.113 in test [23]; 0.122 in test [24]; -0.286 in test [25]. Moreover, the values for the interaction score in [26] and in test [27] were 1.6 and -0.299, respectively.
